Test in all cases: fluorescence polarisation; 25 °C; unlabeled Rb^P titrated against 1.5 nM TMR-E2F1^TD or 7.5 nM TMR-E7^LxCxE; 25 mM Tris pH 8.0, 200 mM NaCl, 1 mM DTT, 0.1% Tween-20; 2 min incubation; quadratic fit; apparent Kd for the variants, Kd for WT
What all share (conditions): both partners purified

One assay concerns the target T1, Rb^P A525G (human, UniProt P06400 380-788, A525G).
T1 construct: also called variant 20
T1 sequence (looked up): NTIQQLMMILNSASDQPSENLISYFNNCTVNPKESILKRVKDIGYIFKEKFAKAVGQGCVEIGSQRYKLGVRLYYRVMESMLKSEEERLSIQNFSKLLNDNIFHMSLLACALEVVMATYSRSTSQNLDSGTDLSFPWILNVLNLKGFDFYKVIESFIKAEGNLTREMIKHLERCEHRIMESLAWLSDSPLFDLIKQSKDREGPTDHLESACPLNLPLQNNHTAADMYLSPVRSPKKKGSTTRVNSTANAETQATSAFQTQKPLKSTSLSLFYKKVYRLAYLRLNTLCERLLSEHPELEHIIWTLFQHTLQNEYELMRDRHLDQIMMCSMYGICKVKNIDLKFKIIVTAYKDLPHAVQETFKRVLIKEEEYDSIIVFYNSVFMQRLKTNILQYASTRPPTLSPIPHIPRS

Another assay addresses T2, Rb^P I703F (human, UniProt P06400 380-788, I703F).
T2 construct: also called variant 64
T2 sequence (looked up): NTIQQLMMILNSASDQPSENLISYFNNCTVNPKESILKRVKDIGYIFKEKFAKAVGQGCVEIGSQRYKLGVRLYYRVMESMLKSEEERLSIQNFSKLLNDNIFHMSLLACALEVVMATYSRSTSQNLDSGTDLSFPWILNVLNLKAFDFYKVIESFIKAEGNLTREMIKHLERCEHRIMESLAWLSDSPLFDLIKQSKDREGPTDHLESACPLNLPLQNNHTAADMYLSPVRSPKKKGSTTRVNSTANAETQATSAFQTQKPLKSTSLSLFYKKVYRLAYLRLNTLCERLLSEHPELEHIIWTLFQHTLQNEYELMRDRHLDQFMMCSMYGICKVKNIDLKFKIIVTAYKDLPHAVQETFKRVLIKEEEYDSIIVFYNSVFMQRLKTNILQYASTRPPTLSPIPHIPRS

The target in the next assay is T3, Rb^P M761L (human, UniProt P06400 380-788, M761L).
T3 construct: also called variant 74
T3 sequence (looked up): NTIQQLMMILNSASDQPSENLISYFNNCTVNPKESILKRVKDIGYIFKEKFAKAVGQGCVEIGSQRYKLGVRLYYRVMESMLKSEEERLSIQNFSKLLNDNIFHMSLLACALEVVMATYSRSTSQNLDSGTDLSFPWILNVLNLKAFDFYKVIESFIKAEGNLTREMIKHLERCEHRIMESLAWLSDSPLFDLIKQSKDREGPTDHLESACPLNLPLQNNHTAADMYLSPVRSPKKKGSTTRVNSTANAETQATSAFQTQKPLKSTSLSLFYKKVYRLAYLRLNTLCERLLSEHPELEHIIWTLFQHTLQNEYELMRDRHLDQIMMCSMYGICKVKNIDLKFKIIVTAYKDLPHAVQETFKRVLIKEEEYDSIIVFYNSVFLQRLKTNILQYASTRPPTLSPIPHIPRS

A further assay concerns the target T4, Rb^P R741C (human, UniProt P06400 380-788, R741C).
T4 construct: also called variant 68
T4 sequence (looked up): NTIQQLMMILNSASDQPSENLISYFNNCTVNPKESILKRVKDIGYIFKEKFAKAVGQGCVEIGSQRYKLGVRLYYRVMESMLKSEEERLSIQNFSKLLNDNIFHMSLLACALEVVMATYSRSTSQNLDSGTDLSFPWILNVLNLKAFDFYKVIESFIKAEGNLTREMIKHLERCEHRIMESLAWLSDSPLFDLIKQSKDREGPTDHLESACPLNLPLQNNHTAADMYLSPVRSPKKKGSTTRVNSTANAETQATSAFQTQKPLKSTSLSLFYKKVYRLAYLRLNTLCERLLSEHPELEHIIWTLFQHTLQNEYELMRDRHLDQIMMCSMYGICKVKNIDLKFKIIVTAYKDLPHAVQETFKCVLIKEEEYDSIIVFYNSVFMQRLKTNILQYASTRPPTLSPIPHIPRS

For a further assay, the target named is T5, Rb^P H699P (human, UniProt P06400 380-788, H699P).
T5 construct: also called variant 63
T5 sequence (looked up): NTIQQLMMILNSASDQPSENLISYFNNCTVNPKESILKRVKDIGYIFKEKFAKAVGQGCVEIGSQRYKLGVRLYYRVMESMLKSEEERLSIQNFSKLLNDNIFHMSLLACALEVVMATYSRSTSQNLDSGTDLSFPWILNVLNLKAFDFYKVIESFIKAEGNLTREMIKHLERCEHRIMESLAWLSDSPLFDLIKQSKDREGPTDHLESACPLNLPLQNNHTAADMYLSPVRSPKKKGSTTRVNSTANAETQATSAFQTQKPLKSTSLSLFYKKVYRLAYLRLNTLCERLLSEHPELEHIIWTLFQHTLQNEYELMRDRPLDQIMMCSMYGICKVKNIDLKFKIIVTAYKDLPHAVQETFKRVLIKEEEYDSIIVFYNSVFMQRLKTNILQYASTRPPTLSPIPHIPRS

No end group written: not given here. TMR = tetramethyl rhodamine dye

B1: TMR-E2F1^TD, peptide of the E2F1 transactivation domain (peptide)
peptide: {TMR}-GEGIRDLFDCDFGDLTPLD
notes: also called E2F^TD; source: synthetic peptide, bought: GenScript
Turning to B1, the Kd worked out at 36 nM with Rb^P A525G; 63 nM in the assay with Rb^P I703F; 32 nM in the assay with Rb^P M761L; 23 nM with Rb^P R741C; 35 nM in the assay with Rb^P H699P.

B2: TMR-E7^LxCxE, LxCxE peptide of the E7 oncoprotein from HPV (peptide)
peptide: DLYCYEQLN
modifications: also: TMR label, position not given here
notes: source: synthetic peptide, bought: GenScript
For the molecule B2, the Kd was 12 nM with Rb^P A525G; 16 nM with Rb^P I703F; 1.3 nM with Rb^P M761L; 14 nM in the assay with Rb^P R741C; 6 nM with Rb^P H699P.

(Values after article PMC11931385, “Structural and functional analysis of cancer-associated missense variants in the retinoblastoma protein pocket domain” (The Journal of Biological Chemistry, 2025).)
